The source of these data is patent US8143228B2, “Agents capable of downregulating an MSF-A dependent HIF-1α and use thereof in cancer treatment” (Medical Research Fund of Tel Aviv Sourasky Medical Center, priority 2004, dated 2012).

One test relates to PC-3 xenograft tumors. In words: Prostate cancer subcutaneous xenograft model. Format: in vivo, CD1/nude mice. Conditions: PC-3-MSF-A vs PC-3-Neo tumors. As to the method:
FIG. 28 is a graph depicting the effect of MSF-A over-expression on tumor volume. A prostate cancer xenograft model was established using PC-3-Neo and PC-3-MSF-A cells (3×10^6) which were implanted subcutaneously into the right hind of nude mice. PBS was used as a negative control. Animals were monitored for tumor volume measurements. Tumor volume measurements were calculated using the formula width^2×length×0.52. Mean±SEM (n=5) of representative experiments is shown.
FIG. 29 is a graph depicting the effect of MSF-A over-expression on tumor weight. A prostate cancer xenograft model was established as described in FIG. 28. Mice were sacrificed after 6 weeks and tumors were processed for tumor weight measurements. Tumors were weighed immediately after dissection. Columns, means; bars, SEM; n=5; *, p<0.05.
FIGS. 30a-h are photomicrographs (FIGS. 30a-f) and graphs (FIGS. 30g-h) depicting MSF-A over-expression in tumors and angiogenesis in a prostate cancer xenograft model. […] FIG. 30g—Ki67 staining (%) was quantified by dividing the number of positive nuclei by the number of total nuclei in 40× magnification field multiplied by 100, of 5 paraffin-embedded tumor sections from each animal per group. […] FIG. 30h—Microvessel density (MVD) was determined by counting the capillaries positive for CD34 staining in 4× magnification field per total section area excluding necrotic areas in 5 paraffin-embedded tumor sections from each animal per group. […]
Immunohistochemistry with anti-CD34 and anti-Ki67—For immunohistochemical staining paraffin-embedded tissue was sectioned at 3 μm and mounted on Superfrost/plus slides (Menzel-Glaser, Braunschweig, Germany). […] For quantitative analysis of Ki67 and CD34 staining, positive staining cells and microvessels were counted and their density expressed as the number of positive cells per total number of cells or capillaries per total section area excluding necrotic areas, respectively. […]

In test [1] the test system is HIF-1α transcriptional activity. Description: HRE-dependent luciferase reporter gene assay in HEK 293 cells. Format: cell-based. Conditions: transient transfection, hypoxia, compared with empty vector. As to the method:
FIG. 7 is a graph depicting luciferase activity (a reporter of HIF-1α transcriptional activation) as a function of the presence or absence of the N-terminus of the MSF-A protein. HEK 293 cells were co-transfected with 0.1 μg HRE-dependent luciferase reporter [pBI-GL V6L (Post, D. E., and Van Meir, E. G. 2001. Generation of bidirectional hypoxia/HIF-responsive expression vectors to target gene expression to hypoxic cells. Gene Ther 8, 1801-1807. Mabjeesh, N. J., et al., 2002, Geldanamycin induces degradation of hypoxia-inducible factor 1 alpha protein via the proteasome pathway in prostate cancer cells. Cancer Res 62, 2478-2482) and the wild type (WT) MSF-A (p3xFlag-MSF-A), ΔN-MSF-A (ΔN) (p3xFlag-ΔN-MSF-A) or empty vector (EV) (p3xFlag-cmv-25) constructs as follows: Experiment (Exp.) No. 1=1 μg EV; Exp. No. 2=0.5 μg EV and 0.5 μg WT; Exp. No. 3-1 μg WT; Exp. No. 4=0.5 μg EV and 0.5 μg ΔN; Exp. No. 5=1 μg ΔN. After 24 hours of transfection, cells were subjected to normoxia or hypoxia for overnight and then analyzed for luciferase luminescence assay. Luciferase activity is presented as relative units per μg protein in each experiment. Columns represent means; bars represent SD; n=3; *, p<0.05 compared to hypoxia of EV. Note the significant decrease of luciferase activity in cells grown under hypoxia and transfected with the N-terminus truncated form (ΔN) of MSF-A as compared with cells transfected with the wild-type form of MSF-A. Also note that under normoxia, when the luciferase activity is hardly detected, no significant difference is obtained.
FIG. 8 is a graph depicting luciferase activity (a reporter of HIF-1α transcriptional activation) as a function of the presence or absence of the GTP binding site of MSF-A (ΔG). HEK 293 cells were cotransfected with HRE-dependent luciferase reporter and the expression vector encoding wild-type MSF-A (WT) (p3xFlag-MSF-A), the deleted GTP binding site form of MSF-A (ΔG) (p3xFlag-ΔG-MSF-A) or empty vector (EV) (p3xFlag-cmv-25) and then were exposed to hypoxia conditions as described in the description of FIG. 4, hereinabove. Luciferase activity is presented as relative units per μg protein in each experiment. Columns represent means; bars represent SD; n=3. Note the non-significant effect of the ΔG-MSF-A on HIF-1α activity.
Reporter gene assay and luminescence measurements—HRE-dependent luciferase activity was performed using the pBI-GL construct (pBI-GL V6L) containing six tandem copies of the VEGF hypoxia response element as previously described (Mabjeesh et al., 2002; Post and Van Meir, 2001). […] Luciferase enzymatic activity was measured using the commercial kit TROPIX (Bedford, Mass.) in the Galaxy luminometer (BMG Labtechnologies LUMIstar) following the manufacturer's instructions. […]

B1: MSF-A: myeloid/lymphoid leukemia septin-like fusion protein A (SEQ ID NO:3), over-expressed from the p3xFlag-MSF-A vector (protein, listed as Homo sapiens)
chain: MKKSYSGGTRTSSGRLRRLGDSSGPALKRSFEVEEVETPNSTPPRRVQTPLLRATVASSTQKFQDLGVKNSEPSARHVDSLSQRSPKASLRRVELSGPKAAEPVSRRTELSIDISSKQVENAGAIGPSRFGLKRAEVLGHKTPEPAPRRTEITIVKPQESAHRRMEPPASKVPEVPTAPATDAAPKRVEIQMPKPAEAPTAPSPAQTLENSEPAPVSQLQSRLEPKPQPPVAEATPRSQEATEAAPSCVGDMADTPRDAGLKQAPASRNEKAPVDFGYVGIDSILEQMRRKAMKQGFEFNIMVVGQSGLGKSTLINTLFKSKISRKSVQPTSEERIPKTIEIKSITHDIEEKGVRMKLTVIDTPGFGDHINNENCWQPIMKFINDQYEKYLQEEVNINRKKRIPDTRVHCCLYFIPATGHSLRPLDIEFMKRLSKVVNIVPVIAKADTLTLEERVHFKQRITADLLSNGIDVYPQKEFDEDSEDRLVNEKFREMIPFAVVGSDHEYQVNGKRILGRKTKWGTIEVENTTHCEFAYLRDLLIRTHMQNIKDITSSIHFEAYRVKRLNEGSSAMANGVEEKEPEAPEM
modifications: 3xFlag tag
Regarding B1, the “intratumoral cell proliferation (Ki67) and vascular density (CD34)” value in the test with PC-3 xenograft tumors is “significantly increased”. Further, the mean tumor weight entry in the test on PC-3 xenograft tumors (after 6 weeks) is on record as “significantly heavier”. For the same molecule, the “increase of mean tumor volume” value with PC-3 xenograft tumors (s.c., nude mice, not statistically significant) is recorded as “about 2 fold”. For the same molecule, the “HIF-1α transcriptional activity (luciferase reporter)” value in test [1] is recorded as “induced HIF-1α activity”.
